Earlier results, collected in paper PMC8002558.

Target: Fibrinogen (Homo sapiens) (UniProt P02671)
Sequence of UniProt P02671 (P02671 36-866, chain 1 of 3): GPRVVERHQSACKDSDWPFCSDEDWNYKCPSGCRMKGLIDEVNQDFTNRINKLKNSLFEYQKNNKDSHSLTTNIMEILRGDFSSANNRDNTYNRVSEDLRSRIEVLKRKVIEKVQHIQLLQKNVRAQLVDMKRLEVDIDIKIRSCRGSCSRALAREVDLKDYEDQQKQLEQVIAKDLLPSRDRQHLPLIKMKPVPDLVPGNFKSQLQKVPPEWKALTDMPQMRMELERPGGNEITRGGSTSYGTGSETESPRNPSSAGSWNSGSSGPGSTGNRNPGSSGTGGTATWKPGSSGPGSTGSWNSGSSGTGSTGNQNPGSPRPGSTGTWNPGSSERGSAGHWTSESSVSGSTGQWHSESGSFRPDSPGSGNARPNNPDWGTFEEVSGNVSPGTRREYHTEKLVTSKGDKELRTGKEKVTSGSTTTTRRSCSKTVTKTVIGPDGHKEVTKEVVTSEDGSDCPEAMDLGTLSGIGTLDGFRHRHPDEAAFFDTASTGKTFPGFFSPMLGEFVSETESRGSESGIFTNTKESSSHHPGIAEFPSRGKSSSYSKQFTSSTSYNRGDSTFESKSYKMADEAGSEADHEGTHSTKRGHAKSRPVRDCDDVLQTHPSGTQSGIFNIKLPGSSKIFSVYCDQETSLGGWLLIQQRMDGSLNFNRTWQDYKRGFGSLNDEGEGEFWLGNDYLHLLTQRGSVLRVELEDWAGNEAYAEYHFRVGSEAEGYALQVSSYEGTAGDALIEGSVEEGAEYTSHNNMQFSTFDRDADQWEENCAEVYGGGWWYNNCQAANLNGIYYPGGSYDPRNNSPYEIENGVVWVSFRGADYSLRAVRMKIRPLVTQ
Sequence of UniProt P02671 (P02675 45-491, chain 2 of 3, further chain): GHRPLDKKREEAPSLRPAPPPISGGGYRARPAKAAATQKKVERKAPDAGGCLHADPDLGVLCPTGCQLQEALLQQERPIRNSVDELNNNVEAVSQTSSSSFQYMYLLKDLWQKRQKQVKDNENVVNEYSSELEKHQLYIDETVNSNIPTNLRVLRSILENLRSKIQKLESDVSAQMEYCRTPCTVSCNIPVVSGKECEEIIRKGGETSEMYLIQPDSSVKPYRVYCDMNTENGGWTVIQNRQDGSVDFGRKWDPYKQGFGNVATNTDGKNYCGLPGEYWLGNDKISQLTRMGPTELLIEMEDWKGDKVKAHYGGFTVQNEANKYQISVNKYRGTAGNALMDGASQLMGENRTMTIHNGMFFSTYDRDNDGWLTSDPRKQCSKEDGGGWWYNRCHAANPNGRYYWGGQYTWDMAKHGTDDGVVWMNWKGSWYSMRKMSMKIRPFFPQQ
Sequence of UniProt P02671 (P02679 27-453, chain 3 of 3, further chain): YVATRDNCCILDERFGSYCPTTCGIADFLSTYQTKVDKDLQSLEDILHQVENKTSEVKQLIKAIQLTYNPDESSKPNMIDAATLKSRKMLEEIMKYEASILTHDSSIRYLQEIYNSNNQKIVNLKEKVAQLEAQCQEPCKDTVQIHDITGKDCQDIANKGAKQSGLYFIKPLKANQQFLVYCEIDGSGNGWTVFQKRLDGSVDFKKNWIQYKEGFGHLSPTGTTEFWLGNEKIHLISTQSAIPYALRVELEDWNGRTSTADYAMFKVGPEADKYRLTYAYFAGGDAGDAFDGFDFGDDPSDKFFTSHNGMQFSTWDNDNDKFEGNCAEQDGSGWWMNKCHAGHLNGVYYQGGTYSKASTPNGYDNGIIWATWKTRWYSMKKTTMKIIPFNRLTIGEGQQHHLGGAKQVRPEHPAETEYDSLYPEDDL

Question: With “Factor XIII (plasma) (from UniProt P00488)” as the substance, how does the Kd read?
Answer: 10 nM
